{"source": "paper PMC3882140", "biological_target": "CP-431C/mCherrySP141(C140A) P22 procapsid (bacteriophage P22) (UniProt P26747)", "assay": "pelleting by ultracentrifugation and resuspension", "data": [{"substance": "CP-431C/mCherrySP141(C140A) P22 procapsid (from UniProt P26747 1-430; P26748 141-303) (complex)", "values": [{"measurement": "soluble capsid recovered after pelleting, relative to wtCP/mCherrySP141(C140A)", "value": 3, "unit": "%"}]}]}
